The source of these data is patent publication US20050282743A1, “Molecular interactions in cells” (Arbor Vita Corporation, priority 2001, published 2005).

What all share (assay): G' assay
The target of assay [1] is T1, GST-SYNTENIN PDZ domain 1 (Homo sapiens (Human)), O00560.
T1 chain: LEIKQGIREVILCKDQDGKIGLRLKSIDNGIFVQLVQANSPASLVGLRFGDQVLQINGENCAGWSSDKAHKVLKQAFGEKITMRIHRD

In assay [2] the target is T2, GST-KIAA0382 PDZ domain 1 (Canis lupus familiaris (Dog) (Canis familiaris)), A0A8I3.
T2 chain: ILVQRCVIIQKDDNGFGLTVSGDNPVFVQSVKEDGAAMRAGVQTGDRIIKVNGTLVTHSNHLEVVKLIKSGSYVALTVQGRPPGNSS

The target in assay [3] is T3, GST-MUPP1 PDZ domain 3 (Homo sapiens (Human)), O75970.
T3 chain: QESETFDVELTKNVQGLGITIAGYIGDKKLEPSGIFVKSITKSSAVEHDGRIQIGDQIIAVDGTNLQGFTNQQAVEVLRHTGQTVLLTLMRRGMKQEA

In assay [4] the target is T4, GST-KIAA0807(S) PDZ domain 1 (Homo sapiens (Human)), Q6P0Q8.
T4 chain: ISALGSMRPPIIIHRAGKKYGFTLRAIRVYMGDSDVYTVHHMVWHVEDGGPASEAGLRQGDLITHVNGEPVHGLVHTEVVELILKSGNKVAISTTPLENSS

Assay [5] has as its target T5, GST-DVL2 PDZ domain 1 (Homo sapiens (Human)), O14641.
T5 chain: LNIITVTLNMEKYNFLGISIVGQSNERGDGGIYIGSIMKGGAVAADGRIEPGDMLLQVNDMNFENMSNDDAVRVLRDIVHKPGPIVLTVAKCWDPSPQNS

In assay [6] the target is T6, GST-HEMBA 1003117 PDZ domain 1 (Homo sapiens (Human)), Q96JH8.
T6 chain: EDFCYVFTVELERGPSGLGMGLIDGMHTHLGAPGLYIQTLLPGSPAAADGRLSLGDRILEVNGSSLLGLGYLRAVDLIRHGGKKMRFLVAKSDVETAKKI

Assay [7] deals with T7, GST-FLJ 10324 PDZ domain 1 [GST: P08515].
T7 chain: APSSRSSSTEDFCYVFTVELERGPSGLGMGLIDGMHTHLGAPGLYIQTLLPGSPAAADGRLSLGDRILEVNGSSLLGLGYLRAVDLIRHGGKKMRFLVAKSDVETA

The target in assay [8] is T8, GST-MINT1 PDZ domain 2 (Mus musculus (Mouse)), B2RUJ5.
T8 chain: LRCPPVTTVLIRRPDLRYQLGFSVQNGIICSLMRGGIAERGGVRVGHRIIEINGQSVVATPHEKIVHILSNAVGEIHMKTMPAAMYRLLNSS

The target of assay [9] is T9, GST-MUPP1 PDZ domain 11 (Homo sapiens (Human)), O75970.
T9 chain: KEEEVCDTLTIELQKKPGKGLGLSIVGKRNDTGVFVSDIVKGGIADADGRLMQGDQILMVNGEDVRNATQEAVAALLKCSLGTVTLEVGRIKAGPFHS

In assay [10] the target is T10, GST-MINT1 PDZ domains 1, 2, Q02410.
T10 chain: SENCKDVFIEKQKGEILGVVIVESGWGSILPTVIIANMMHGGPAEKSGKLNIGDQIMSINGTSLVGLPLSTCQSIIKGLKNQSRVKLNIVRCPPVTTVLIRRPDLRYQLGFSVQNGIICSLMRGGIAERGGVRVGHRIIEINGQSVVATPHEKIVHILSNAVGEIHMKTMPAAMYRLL

Assay [11] has as its target T11, GST-MINT1 PDZ domain 1 (Mus musculus (Mouse)), B2RUJ5.
T11 chain: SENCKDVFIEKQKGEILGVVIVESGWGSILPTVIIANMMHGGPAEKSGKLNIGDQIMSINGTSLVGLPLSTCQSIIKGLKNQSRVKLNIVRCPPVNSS

In assay [12] the target is T12, GST-PTPL1 PDZ domain 4 (Homo sapiens (Human)), Q12923.
T12 chain: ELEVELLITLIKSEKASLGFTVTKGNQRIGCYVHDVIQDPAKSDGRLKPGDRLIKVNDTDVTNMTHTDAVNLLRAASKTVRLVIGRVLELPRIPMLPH

For assay [13], the target named is T13, GST-ZO-3 PDZ domain 3 (Homo sapiens (Human)), O95049.
T13 chain: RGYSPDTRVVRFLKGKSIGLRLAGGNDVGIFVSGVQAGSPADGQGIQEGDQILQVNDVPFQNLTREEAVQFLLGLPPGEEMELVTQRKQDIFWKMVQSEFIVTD

Assay [14] deals with GST-PAR3 PDZ domain 3 (Homo sapiens (Human)), Q8TEW0.
Chain of GST-PAR3 PDZ domain 3 (Homo sapiens (Human)), Q8TEW0 (Q8TEW0 579-681): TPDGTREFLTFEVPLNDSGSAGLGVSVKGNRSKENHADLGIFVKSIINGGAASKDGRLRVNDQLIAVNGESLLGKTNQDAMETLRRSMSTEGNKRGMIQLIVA
Assay [15] has as its target T14, GST-AIPC PDZ domain 1 (Homo sapiens (Human)), O15018.
T14 chain: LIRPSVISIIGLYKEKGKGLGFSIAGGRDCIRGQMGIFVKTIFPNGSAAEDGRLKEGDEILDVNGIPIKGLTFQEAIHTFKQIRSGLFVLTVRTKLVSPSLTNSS

In assay [16] the target is GST-KIAA807 [GST: P08515].
Chain of GST-KIAA807 [GST: P08515] (P08515 whole entry, the tested form may be a part): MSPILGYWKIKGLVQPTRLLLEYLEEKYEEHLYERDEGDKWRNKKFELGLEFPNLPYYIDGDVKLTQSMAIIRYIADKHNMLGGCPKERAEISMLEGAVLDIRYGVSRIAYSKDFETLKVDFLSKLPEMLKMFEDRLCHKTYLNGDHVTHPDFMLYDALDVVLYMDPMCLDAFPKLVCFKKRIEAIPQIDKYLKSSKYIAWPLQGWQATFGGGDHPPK
Assay [17] has as its target T15, GST-MUPP1 PDZ domain 9 (Homo sapiens (Human)), O75970.
T15 chain: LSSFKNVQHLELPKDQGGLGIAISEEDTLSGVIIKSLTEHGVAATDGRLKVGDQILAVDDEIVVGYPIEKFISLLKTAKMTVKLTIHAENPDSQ

Assay [18] has as its target T16, GST-MUPP1 PDZ domain 7 (Homo sapiens (Human)), O75970.
T16 chain: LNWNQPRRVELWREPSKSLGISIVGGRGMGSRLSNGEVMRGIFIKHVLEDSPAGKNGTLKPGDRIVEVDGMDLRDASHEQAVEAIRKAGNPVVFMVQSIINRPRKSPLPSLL

Assay [19] deals with T17, GST-MUPP1 PDZ domain 2 (Homo sapiens (Human)), O75970.
T17 chain: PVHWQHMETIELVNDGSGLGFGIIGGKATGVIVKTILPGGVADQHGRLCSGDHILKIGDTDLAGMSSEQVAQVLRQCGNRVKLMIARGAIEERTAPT

Assay [20] concerns the target GST-KIAA1222 PDZ domain 1 (Rattus norvegicus (Rat)), O35867.
The target in assay [21] is T18, GST-Shank 1 PDZ domain 1 (Homo sapiens (Human)), Q9UPX8.
T18 chain: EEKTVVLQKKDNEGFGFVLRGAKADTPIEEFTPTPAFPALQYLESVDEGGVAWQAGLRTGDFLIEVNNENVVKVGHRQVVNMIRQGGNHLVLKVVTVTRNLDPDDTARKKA

The target of assay [22] is GST-BAI-1 Associated Protein PDZ domain 2 (Mus musculus (Mouse)), Q6RHR9.
Chain of GST-BAI-1 Associated Protein PDZ domain 2 (Mus musculus (Mouse)), Q6RHR9 (Q6RHR9 455-558): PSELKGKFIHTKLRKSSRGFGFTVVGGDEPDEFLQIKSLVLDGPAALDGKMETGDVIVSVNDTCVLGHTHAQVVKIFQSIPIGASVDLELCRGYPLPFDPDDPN
Assay [23] has as its target T19, GST-KIAA0973 PDZ domain 1 (Homo sapiens (Human)), Q9Y2H9.
T19 chain: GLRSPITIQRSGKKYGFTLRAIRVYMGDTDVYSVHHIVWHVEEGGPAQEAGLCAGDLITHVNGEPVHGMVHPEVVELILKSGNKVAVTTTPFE

Assay [24] addresses GST-KIAA1634 PDZ domain 1 (Homo sapiens (Human)), Q5TCQ9.
In assay [25] the target is T20, GST-GRIP 1 PDZ domain 6 (Mus musculus (Mouse)), Q925T6.
T20 chain: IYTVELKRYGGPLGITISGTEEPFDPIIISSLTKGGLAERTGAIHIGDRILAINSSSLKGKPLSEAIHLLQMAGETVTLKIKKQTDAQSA

Assay [26] has as its target T21, GST-KIAA1719 PDZ domain 6 (Homo sapiens (Human)), Q9C0E4.
T21 chain: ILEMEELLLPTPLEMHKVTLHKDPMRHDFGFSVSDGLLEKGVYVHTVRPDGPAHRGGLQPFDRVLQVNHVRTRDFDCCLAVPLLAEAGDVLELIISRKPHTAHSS

The target in assay [27] is T22, GST-KIAA1719 PDZ domain 3 (Homo sapiens (Human)), Q9C0E4.
T22 chain: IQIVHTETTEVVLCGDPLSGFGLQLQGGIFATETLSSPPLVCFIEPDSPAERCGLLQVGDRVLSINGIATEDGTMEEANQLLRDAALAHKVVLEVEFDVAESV

Assay [28] has as its target T23, GST-APXL-1 PDZ domain 1 (Homo sapiens (Human)), Q13796.
T23 chain: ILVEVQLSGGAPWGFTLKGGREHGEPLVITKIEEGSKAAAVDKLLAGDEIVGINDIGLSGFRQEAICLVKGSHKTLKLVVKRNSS

The target in assay [29] is T24, GST-X-11 beta PDZ domain 2 (Rattus norvegicus (Rat)), O35431.
T24 chain: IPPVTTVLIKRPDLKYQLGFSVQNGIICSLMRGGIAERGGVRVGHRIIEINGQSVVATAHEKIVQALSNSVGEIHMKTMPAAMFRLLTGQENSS

The target in assay [30] is GST-BAI-1 Associated Protein PDZ domain 4 (Homo sapiens (Human)), Q96QZ7.
Chain of GST-BAI-1 Associated Protein PDZ domain 4 (Homo sapiens (Human)), Q96QZ7 (Q96QZ7 other isoform, or with tags, fused parts or gaps): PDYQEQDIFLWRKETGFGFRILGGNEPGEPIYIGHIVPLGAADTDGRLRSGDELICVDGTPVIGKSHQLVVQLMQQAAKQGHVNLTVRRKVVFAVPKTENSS
For assay [31], the target named is T25, GST-TIP1 PDZ domain 1 (Table 9 insert) (Homo sapiens (Human)), O14907.
T25 chain: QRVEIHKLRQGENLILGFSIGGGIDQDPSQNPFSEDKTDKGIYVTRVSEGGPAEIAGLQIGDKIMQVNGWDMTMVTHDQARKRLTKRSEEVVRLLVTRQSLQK

Assay [32] has as its target GST-PSD95 PDZ domains 1, 2, 3 (Homo sapiens), P78352.
For assay [33], the target named is T26, GST-KIAA0303 PDZ domain 1 (Homo sapiens (Human)), O15021.
T26 chain: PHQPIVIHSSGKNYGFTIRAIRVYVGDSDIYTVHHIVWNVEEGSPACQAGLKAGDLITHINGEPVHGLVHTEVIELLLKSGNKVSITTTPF
Also: key of the grades not given here.

Chain of GST-KIAA1634 PDZ domain 1 (Homo sapiens (Human)), Q5TCQ9 (Q5TCQ9 401-502): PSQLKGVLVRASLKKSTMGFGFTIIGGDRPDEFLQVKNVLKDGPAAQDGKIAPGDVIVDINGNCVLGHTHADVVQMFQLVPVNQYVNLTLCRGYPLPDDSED
Chain of GST-PSD95 PDZ domains 1, 2, 3 (Homo sapiens), P78352 (P78352 62-395): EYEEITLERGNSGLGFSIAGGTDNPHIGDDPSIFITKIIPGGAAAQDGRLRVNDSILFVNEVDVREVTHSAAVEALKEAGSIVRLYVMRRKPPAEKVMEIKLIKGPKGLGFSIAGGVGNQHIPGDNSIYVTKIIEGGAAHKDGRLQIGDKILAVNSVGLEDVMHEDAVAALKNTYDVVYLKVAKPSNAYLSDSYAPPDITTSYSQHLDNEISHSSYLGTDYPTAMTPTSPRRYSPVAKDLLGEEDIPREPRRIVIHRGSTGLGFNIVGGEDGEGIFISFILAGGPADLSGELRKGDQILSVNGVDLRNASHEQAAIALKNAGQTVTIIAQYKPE
Chain of GST-KIAA1222 PDZ domain 1 (Rattus norvegicus (Rat)), O35867 (O35867 499-598, tags or fused parts left off): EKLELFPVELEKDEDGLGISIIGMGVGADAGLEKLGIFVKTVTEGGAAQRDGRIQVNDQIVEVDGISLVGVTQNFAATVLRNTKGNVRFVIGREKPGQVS

As to KTMPAAMFRLLTGQETPLYI (modifications not checked) [MINT-2], the Classification was 2 A450 class in assay [1]; 1 A450 class in assay [2]; 1 A450 class in assay [3]; 4 A450 class in assay [4]; 2 A450 class in [5]; 3 A450 class in assay [6]. In addition, the Classification in assay [7] came out at 4 A450 class; in assay [8], 1 A450 class; in assay [9], 5 A450 class; in [10], 5 A450 class; in assay [11] it was 2 A450 class; in [12], 4 A450 class. The Classification in assay [13] was determined as 1 A450 class; in assay [14], 5 A450 class; in assay [15], 1 A450 class; in [16], 3 A450 class; in assay [17] it was 1 A450 class; in assay [18], 1 A450 class. For the same molecule, the Classification in assay [19] and in assay [20] was 1 A450 class each time.
Regarding ALVLIAFCIIRRRPSAYQAL (modifications not checked) [CD68], the Classification in assay [21] is 1 A450 class; in assay [22], 3 A450 class; in assay [4], 5 A450 class; in assay [5] it was 2 A450 class; in assay [23] it was 1 A450 class; in assay [7] it was 1 A450 class. In addition, the Classification stood at 2 A450 class in assay [24]; 1 A450 class in assay [25]; 2 A450 class in assay [8]; 1 A450 class in assay [10]; 1 A450 class in [26]; 1 A450 class in assay [27]. Besides, the Classification in assay [28] turned out to be 2 A450 class; in assay [29], 1 A450 class.
With QDFRRAFRRILARPWTQTAW (modifications not checked) [alpha-2B Adrenergic receptor], the Classification in assay [22] is 4 A450 class; in [16], 4 A450 class; in [30], 5 A450 class; in assay [31], 5 A450 class; in [32], 5 A450 class; in [33], 4 A450 class.
